Laboratory results published in US20210363269A1 (ALX ONCOLOGY, published 2021).

T1: mouse 129 SIRP-α (mouse (129 strain), UniProt P97797 32-150)
T1 construct: also called m129
T1 chain: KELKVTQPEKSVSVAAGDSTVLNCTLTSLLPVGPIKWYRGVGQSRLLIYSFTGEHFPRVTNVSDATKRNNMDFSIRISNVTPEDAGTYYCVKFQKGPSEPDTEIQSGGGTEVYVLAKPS

T2: BALBc mouse SIRP-α (mouse (BALB/c strain))
T2 chain: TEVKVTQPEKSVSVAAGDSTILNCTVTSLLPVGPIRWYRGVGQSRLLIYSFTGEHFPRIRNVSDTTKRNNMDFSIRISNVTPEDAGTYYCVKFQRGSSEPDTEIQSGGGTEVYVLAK

T3: NOD mouse SIRP-α (mouse (NOD strain))
T3 chain: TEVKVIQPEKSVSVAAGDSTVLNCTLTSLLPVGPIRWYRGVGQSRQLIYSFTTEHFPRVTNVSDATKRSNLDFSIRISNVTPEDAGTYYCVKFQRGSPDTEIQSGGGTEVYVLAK

T4: cynomolgus SIRP-α (cynomolgus monkey, UniProt Q5TFQ8 30-148 (human entry), limits assumed)
T4 construct: also called cyno1
T4 chain: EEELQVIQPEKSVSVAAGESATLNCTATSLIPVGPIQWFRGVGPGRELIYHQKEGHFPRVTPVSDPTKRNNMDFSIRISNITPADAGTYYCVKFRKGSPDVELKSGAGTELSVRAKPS

T5: BL6 mouse SIRP-α (mouse (C57BL/6 strain), UniProt P97797 32-148)
T5 construct: also called C57BL/6
T5 sequence: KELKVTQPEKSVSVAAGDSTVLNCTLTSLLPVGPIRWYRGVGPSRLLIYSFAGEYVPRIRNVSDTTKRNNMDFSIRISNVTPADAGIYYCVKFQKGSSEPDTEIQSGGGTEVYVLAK

T6: cynomolgus SIRP-α D1 domain (cyno2) (cynomolgus monkey, UniProt Q5TFQ8 30-148 (human entry), limits assumed)
T6 chain: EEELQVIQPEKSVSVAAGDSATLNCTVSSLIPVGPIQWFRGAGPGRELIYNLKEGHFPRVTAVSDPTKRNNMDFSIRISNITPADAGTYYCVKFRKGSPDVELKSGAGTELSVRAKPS

T7: high affinity SIRP-α D1 variant CV1-3
T7 chain: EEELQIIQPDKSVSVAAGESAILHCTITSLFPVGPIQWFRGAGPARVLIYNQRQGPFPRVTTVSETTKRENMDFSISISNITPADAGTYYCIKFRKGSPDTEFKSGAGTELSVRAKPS

T8: C57BL/6 mouse SIRP-α D1 domain (mouse (C57BL/6 strain), UniProt P97797 32-148)
T8 sequence: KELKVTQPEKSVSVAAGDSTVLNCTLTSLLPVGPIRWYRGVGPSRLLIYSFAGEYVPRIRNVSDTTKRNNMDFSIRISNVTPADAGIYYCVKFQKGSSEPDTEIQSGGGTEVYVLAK

T9: mouse 129 SIRP-α D1 domain (mouse (129 strain), UniProt P97797 32-150)
T9 construct: also called m129
T9 chain: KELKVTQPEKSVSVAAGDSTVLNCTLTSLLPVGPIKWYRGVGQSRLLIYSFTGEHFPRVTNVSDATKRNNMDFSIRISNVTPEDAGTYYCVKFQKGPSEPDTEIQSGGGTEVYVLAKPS


Legend:
human SIRP-α v1 [1] = biological target: T10, human SIRP-α v1 (human, UniProt P78324 31-149); test: SPR
T10 construct: also called Human v1; Human V1
T10 sequence (P78324 31-149 limits assumed): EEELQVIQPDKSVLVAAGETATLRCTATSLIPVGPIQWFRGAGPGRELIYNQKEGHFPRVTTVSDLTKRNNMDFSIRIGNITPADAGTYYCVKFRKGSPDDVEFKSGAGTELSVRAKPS
In short: (§1)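 Purified antibodies were either amine-coupled to a GLC chip or captured via biotinylated Protein A on an NLC chip of a ProteOn XPR36 biosensor. Runs were at 25° C in PBS pH 7.4 with 0.01% Tween-20. SIRP analytes were injected in one-shot kinetic mode at nominal concentrations set by A280 absorbance. Double-referenced data were fitted globally to a simple Langmuir model, giving apparent rate constants, with KD taken as kd/ka.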

human SIRP-α v2 [2] = biological target: T11, human SIRP-α v2 (human); test: SPR
T11 construct: also called Human v2; Human V2
T11 sequence (chain, as listed by the source limits assumed): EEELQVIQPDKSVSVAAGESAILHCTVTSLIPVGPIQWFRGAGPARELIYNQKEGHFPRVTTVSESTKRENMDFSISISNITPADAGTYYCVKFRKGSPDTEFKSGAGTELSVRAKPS
In short: as §1

human SIRPβ isoform 1 [3] = biological target: T12, human SIRPβ isoform 1 (human, UniProt O00241 30-148); test: SPR Koff +/-
T12 construct: also called Beta; Human SIRPb
In short: as §1
T12 sequence (O00241 30-148 limits assumed): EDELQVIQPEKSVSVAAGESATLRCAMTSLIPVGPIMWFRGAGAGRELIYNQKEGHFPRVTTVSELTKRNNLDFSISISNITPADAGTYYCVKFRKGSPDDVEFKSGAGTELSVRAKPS

mouse 129 SIRP-α = biological target: T1, mouse 129 SIRP-α; test: SPR Koff +/-
In short: as §1

BALBc mouse SIRP-α = biological target: T2, BALBc mouse SIRP-α; test: SPR, antibody on GLC chip
In short: (§2)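 SIRP analytes were run over antibody surfaces in PBS pH 7.4 with 0.01% Tween-20 at 25° C, using one-shot injections at 100, 33, 11, 3.7, 1.2 and 0 nM. The antibodies, purified by Protein A, had been amine-coupled (~1000 RU) to a GLC chip of a ProteOn XPR36 biosensor from an 80 nM solution in 10 mM sodium acetate pH 4.5. Association lasted 90 s at a flow of 100 μL/min, and dissociation lasted 1200 s. KD equals kd/ka, obtained by fitting double-referenced data globally to a Langmuir model.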

human SIRP-α v1 [4] = biological target: T10, human SIRP-α v1; test: SPR, antibody on GLC chip
In short: as §2

NOD mouse SIRP-α = biological target: T3, NOD mouse SIRP-α; test: SPR, antibody on GLC chip
In short: as §2

human SIRPγ isoform 1 [5] = biological target: T13, human SIRPγ isoform 1 (human, UniProt Q9P1W8 29-147); test: SPR, antibody on GLC chip
T13 construct: also called Gamma; Human SIRPg
In short: as §2
T13 sequence (Q9P1W8 29-147 limits assumed): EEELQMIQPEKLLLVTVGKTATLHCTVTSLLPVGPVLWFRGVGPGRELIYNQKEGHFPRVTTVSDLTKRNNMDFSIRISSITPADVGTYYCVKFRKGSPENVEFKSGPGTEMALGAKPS

cynomolgus SIRP-α = biological target: T4, cynomolgus SIRP-α; test: SPR, antibody on GLC chip
In short: as §2

BL6 mouse SIRP-α = biological target: T5, BL6 mouse SIRP-α; test: SPR, antibody on GLC chip
In short: as §2

human SIRP-α v2 [6] = biological target: T11, human SIRP-α v2; test: SPR, antibody on GLC chip
In short: as §2

human SIRPγ isoform 1 [7] = biological target: T14, human SIRPγ isoform 1 (human, UniProt Q9P1W8 29-147); test: SPR, Langmuir fit
T14 construct: also called SIRPg; sirpg
In short: (§3)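 scFv-Fc antibody clones were captured from pre-filtered culture media onto anti-human IgG Fc, amine-coupled at about 4000 RU on a GLC chip in a ProteOn XPR36 instrument. SIRP analytes were passed over in PBS pH 7.4 with 0.01% Tween-20 at 25° C, and responses were double-referenced against interspot and buffer-blank signals. Curves were fitted to a 1:1 Langmuir model. Dissociation rate constants (koff) were taken from those fits.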
T14 sequence (Q9P1W8 29-147 limits assumed): as above

[8] = biological target: T6, cynomolgus SIRP-α D1 domain (cyno2); test: SPR, Langmuir fit
In short: as §3

[9] = biological target: T15, human SIRP-α v1 D1 domain (human, UniProt P78324 31-149); test: SPR, Langmuir fit
T15 construct: also called human v1
T15 sequence (P78324 31-149 limits assumed): as the sequence (P78324 31-149 limits assumed) above
In short: as §3

[10] = biological target: T7, high affinity SIRP-α D1 variant CV1-3; test: SPR, Langmuir fit
In short: as §3

[11] = biological target: T16, human SIRP-α v2 D1 domain (human); test: SPR, Langmuir fit
T16 construct: also called human v2
T16 sequence (chain, as listed by the source limits assumed): as the sequence (chain, as listed by the source limits assumed) above
In short: as §3

human SIRPβ isoform 1 [12] = biological target: T17, human SIRPβ isoform 1 (human, UniProt O00241 30-148); test: SPR, Langmuir fit
T17 construct: also called SIRPb; sirpb1
In short: as §3
T17 sequence (O00241 30-148 limits assumed): as the sequence (O00241 30-148 limits assumed) above

[13] = biological target: T8, C57BL/6 mouse SIRP-α D1 domain; test: SPR
In short: as §3

[14] = biological target: T9, mouse 129 SIRP-α D1 domain; test: SPR
In short: as §3

Row | Binder | Kd (human SIRP-α v1 [1]) | Kd (human SIRP-α v2 [2]) | binding result (human SIRPβ isoform 1 [3]) | binding result (mouse 129 SIRP-α) | binding result (BALBc mouse SIRP-α) | Kd (human SIRP-α v1 [4]) | binding result (NOD mouse SIRP-α) | Kd (human SIRPγ isoform 1 [5]) | Kd (cynomolgus SIRP-α) | binding result (BL6 mouse SIRP-α) | Kd (human SIRP-α v2 [6]) | koff (human SIRPγ isoform 1 [7]) | koff [8] | koff [9] | koff [10] | koff [11] | koff (human SIRPβ isoform 1 [12]) | binding result [13] | binding result [14]
1 | antibody 135 (antibody, V domains shown, also called AB135; S135) VH: DVQLVESGGGVVRPGESLRLSCAASGFSFSIYAMSWVRQAPGEGLEWVSTIGADDTYYADSVKGRFTISRDNSKNTLYLQMNSLRAEDTAVYYCAKDSTVGWSGDFFDYWGLGTLVTVSS VL: EIVLTQSPATLSVSPGERVTFSCRASQNVRSDIAWYQQKPGQAPRLLIYAASSRDTGIPDRFSGSGSGTDFTLTISSLQSEDFGVYYCQQYYDWPPFTFGGGTKVEIK | 0.151 nM | 0.029 nM | binds | no binding | no binding | 0.151 nM | no binding | 0.539 nM | 0.0969 nM | no binding | 0.029 nM | – | – | – | – | – | – | – | –
2 | S163 (scFv, V domains shown) VH: DVQLVESGGGLVRPGESLRLSCAASGFTFTNYAVTWVRQAPGEGLEWVSLISVTGTTYYADSVKGRFTISRDNSKSTLYLQMNGLRAEDTAVYYCAKVTWKNVFDYWGLGTLVTVSS VL: EIVLTQSPGTLSVSPGERATFSCRASQTVGSKLAWYQQKPGQAPRLLIYDANTRATGIPARFSGSGSGTEFTLTISSLQSEDFAVYYCQQHTDWPPYTFGGGTKVEIK | – | – | – | – | – | – | – | – | – | – | – | 0.00315 s⁻¹ | 0.000242 s⁻¹ | 0.000535 s⁻¹ | 0.00174 s⁻¹ | 0.00664 s⁻¹ | 0.0017 s⁻¹ | no binding (tested: Koff > 5 × 10^3 (legend)) | no binding (tested: Koff > 5 × 10^3 (legend))
3 | S164 (scFv, V domains shown) VH: DVQLVESGGGLVRPGESLRLSCAASGFTFTNYAVTWVRQAPGEGLEWVSLISVTGTTYYADSVKGRFTISRDNSKSTLYLQMNGLRAEDTAVYYCAKVTWKNVFDYWGLGTLVTVSS VL: EIVLTQSPGTLSVSPGERATFSCRASQTVGSKLAWYQQKPGQAPRLLIYDANTRATGIPARFSGSRSGTEFTLTISSLQSEDFAVYYCQQHTDWPPYTFGGGTKVEIK | – | – | – | – | – | – | – | – | – | – | – | 0.00426 s⁻¹ | 0.000408 s⁻¹ | 0.000595 s⁻¹ | 0.00134 s⁻¹ | 0.00989 s⁻¹ | 0.00167 s⁻¹ | no binding (tested: Koff > 5 × 10^3 (legend)) | no binding (tested: Koff > 5 × 10^3 (legend))
4 | S162 (scFv, V domains shown) VH: DVQLVESGGGLVRPGESLRLSCAASGFTFTNYAVTWVRQAPGEGLEWVSLISVTGTTYYADSVKGRFTISRDNSKSTLYLQMNSLRAEDTAVYYCAKVTWKNVFDYWGLGTLVTVSS VL: EIVLTQSPGTLSVSPGERATFSCRASQTVGSKLAWYQQKPGQAPRLLIYDANTRATGIPARFSGSGSGTEFTLTISSLQSEDFAVYYCQQHTDWPPYTFGGGTKVEIK | – | – | – | – | – | – | – | – | – | – | – | – | 0.000318 s⁻¹ | – | 0.00152 s⁻¹ | – | – | no binding (tested: Koff > 5 × 10^3 (legend)) | no binding (tested: Koff > 5 × 10^3 (legend))
